# Legend:
# [1] = test system: T47D-MUC1* breast cancer tumors; assay: Breast cancer xenograft, IVIS bioluminescence; assay type: in vivo, NOD/SCID/GAMMA (NSG) mice; conditions: from Day 6, 10 mg/kg, DAR 4.2
# Procedure: (§1) FIGS. 57A-57F show bioluminescence photographs of female NOD/SCID/GAMMA (NSG) mice, implanted with 90-day estrogen pellets and then implanted on the right flank with 1M human breast cancer cells that were either T47D wild-type cells that express low to medium levels of MUC1* or T47D-MUC1* cells that had been engineered to express more MUC1*. Day 7 post tumor implantation, the animals were injected with MNC2-MMAE, DAR 3.9, at 5 mg/kg, but was increased to 10 mg/kg for the Day 14 and Day 20 injections.
# as §1, with “58A-58F” for “57A-57F”, “MN20A10-MMAE,” for “MNC2-MMAE,”, “3.0,” for “3.9,”
# (§2) FIGS. 63A-63H show bioluminescence photographs of female NOD/SCID/GAMMA (NSG) mice, implanted with 90-day estrogen pellets and then implanted on the right flank with 1M human breast cancer cells that were either T47D wild-type cells that express low to medium levels of MUC1* or T47D-MUC1* cells that had been engineered to express more MUC1*. […]
# [2] = test system: T47D-wt breast cancer tumors; assay: Breast cancer xenograft, IVIS bioluminescence; assay type: in vivo, NOD/SCID/GAMMA (NSG) mice; conditions: from Day 6, 10 mg/kg increased to 20 mg/kg, DAR 4.2
# Procedure: as §1
# as §1, with “58A-58F” for “57A-57F”, “MN20A10-MMAE,” for “MNC2-MMAE,”, “3.0,” for “3.9,”
# as §2
molecule,measurement,setting,value
MNC2-Deruxtecan (conjugate) VH: EVQLVESGGGLVKPGGSLRLSCAASGFTFSGYAMSWVRQAPGKGLEWVSTISSGGTYIYYPDSVKGRFTISRDNAKNSLYLQMNSLRAEDTAVYYCARLGGDNYYEYFDVWGKGTTVTVSS VL: DIVLTQSPASLAVSPGQRATITCRASKSVSTSGYSYMHWYQQKPGQPPKLLIYLASNLESGVPARFSGSGSGTDFTLTINPVEANDTANYYCQHSRELPFTFGGGTKVEIKRT,tumor burden (bioluminescence),[1],essentially eliminated by Day 26
same,tumor burden (bioluminescence),[2],greatly reduced compared to the controls

# Source: patent US12491259B2, “Anti-variable MUC1* antibodies and uses thereof” (Minerva Biotechnologies Corporation, priority 2022, dated 2025)
